Data reported in patent US20060193851A1.

Tested on: 10C12 F(ab')2-leucine zipper

factor X
rate of FX activation by relipidated TF(1-243):FVIIa after incubating 10C12 with the substrate FX: 10C12 at up to 200 µg/ml did not inhibit FXa generation in either experimental setting
